Data: patent US20140120109A1 (Regeneron, published 2014)

T1: cynomolgus monkey TL1A, soluble, CHO-expressed, residues 72-251 of SEQ ID NO:248 with N-terminal His6-tag (cynomolgus monkey (Macaca fascicularis), UniProt O95150 72-251 (human entry))
T1 construct: also called MfTL1A; MfTL1A (CHO)
T1 chain: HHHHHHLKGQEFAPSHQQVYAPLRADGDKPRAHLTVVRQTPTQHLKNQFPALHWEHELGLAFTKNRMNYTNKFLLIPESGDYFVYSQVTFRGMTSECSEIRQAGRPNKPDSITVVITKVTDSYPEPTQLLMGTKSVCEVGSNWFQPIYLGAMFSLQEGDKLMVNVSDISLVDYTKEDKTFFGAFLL

T2: full length human TL1A expressed on HEK293 cells (human, UniProt O95150 1-251)
T2 construct: also called HEK293/hTL1A; cell-surface hTL1A
T2 sequence: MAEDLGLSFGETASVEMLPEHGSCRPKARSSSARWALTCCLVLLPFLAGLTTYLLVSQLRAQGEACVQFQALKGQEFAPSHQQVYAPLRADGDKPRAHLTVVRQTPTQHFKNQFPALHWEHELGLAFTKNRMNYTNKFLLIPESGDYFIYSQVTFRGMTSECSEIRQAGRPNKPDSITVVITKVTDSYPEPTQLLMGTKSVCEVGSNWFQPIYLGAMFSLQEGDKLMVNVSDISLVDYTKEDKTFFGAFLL

T3: full length rat TL1A expressed on HEK293 cells (rat, UniProt Q8K3Y7 1-252)
T3 sequence: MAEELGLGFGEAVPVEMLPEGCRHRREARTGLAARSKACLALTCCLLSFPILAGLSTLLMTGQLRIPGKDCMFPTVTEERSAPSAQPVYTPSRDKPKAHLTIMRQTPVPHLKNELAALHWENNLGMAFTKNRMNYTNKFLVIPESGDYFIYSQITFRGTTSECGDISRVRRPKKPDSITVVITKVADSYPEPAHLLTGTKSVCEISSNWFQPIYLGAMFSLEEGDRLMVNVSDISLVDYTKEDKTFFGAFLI


Key:
[1] = target: T1, cynomolgus monkey TL1A, soluble, …; experiment: SPR 37C, mAb captured; kd set at 1e-6 1/s
Method: Measurements were conducted on a T100 BIACORE™ instrument. […] Kinetic association (kₐ) and dissociation (kd) rate constants were determined by fitting the data to a 1:1 binding model using BIAevaluation 4.1 curve fitting software (BIAcore Life Sciences). Molar concentrations of TL1A/Fhm used in the data fitting assumed a monomeric state for TL1A in solution. Binding dissociation equilibrium constants (KD) and dissociative half-lives (t_{1/2}) were calculated from the kinetic rate constants as: KD (M)=kd/kₐ; and t_{1/2} (min)=[In2/(60*kd)].

[2] = target: T2, full length human TL1A expressed on …; experiment: flow, HEK293/hTL1A, mAb 1 ug/ml + 1 ug/ml soluble hTL1A
Method: (§1) Human embryonic kidney 293 cells stably transfected to over-express cell-surface hTL1A were first stained in a flow cytometric experiment with eight anti-hTL1A antibodies at four concentrations (1, 0.1, 0.01, and 0.003 μg/ml). […] The lowest antibody concentration providing significant staining levels was then used in a competition binding experiment. A negative isotype control antibody (human IgG4) was used at 1 μg/ml to define the background signal. For the competition experiment, eight antibody samples, at the minimal concentrations identified above, were first treated with soluble hTL1A expressed from CHO cells at concentrations ranging from 0.03 μg/ml to 10 μg/ml. After pre-incubation for 30 min on ice, the antibody/hTL1A mixture was added to 293/HEK-hTL1A cells that had been isolated by centrifugation in a 96-well conical plate. After incubation for an additional 10 minutes on ice, the cells were washed. The secondary reagent, anti-h Fcγ-APC F(ab′)₂, was added to all wells at a 200-fold dilution to detect bound antibodies. Samples were incubated for 15 minutes on ice, away from light, and then washed. Cells were processed on an BD™ LSR II Flow Cytometer (BD Biosciences) to detect anti-hTL1A antibodies bound to the cell surface, and data were analyzed using FlowJo software (version 8.8.6; Tree Star Inc.). Maximum signal: Anti-hTL1A antibody binding in the absence of soluble hTL1A; Minimum signal: Signal recorded when […] of isotype control antibody was added in place of the anti-hTL1A antibody. NT: Not tested.

[3] = target: T2, full length human TL1A expressed on …; experiment: flow, HEK293/hTL1A, mAb 1 ug/ml + 3 ug/ml soluble hTL1A
Method: as §1

[4] = target: T2, full length human TL1A expressed on …; experiment: flow, HEK293/hTL1A, mAb 1 ug/ml + 0.1 ug/ml soluble hTL1A
Method: as §1

[5] = target: T2, full length human TL1A expressed on …; experiment: flow, HEK293/hTL1A, mAb 1 ug/ml + 0.03 ug/ml soluble hTL1A
Method: as §1

[6] = target: T2, full length human TL1A expressed on …; experiment: flow, HEK293/hTL1A, mAb 0.1 ug/ml + 1 ug/ml soluble hTL1A
Method: as §1

[7] = target: T2, full length human TL1A expressed on …; experiment: flow, HEK293/hTL1A, mAb 0.1 ug/ml + 0.1 ug/ml soluble hTL1A
Method: as §1

[8] = target: T2, full length human TL1A expressed on …; experiment: flow, HEK293/hTL1A, mAb 0.1 ug/ml + 0.3 ug/ml soluble hTL1A
Method: as §1

[9] = target: T2, full length human TL1A expressed on …; experiment: flow, HEK293/hTL1A, mAb 0.1 ug/ml, no soluble hTL1A (maximum signal)
Method: as §1

[10] = target: T3, full length rat TL1A expressed on …; experiment: cell-based or functional assay

| Binder | Kd [1] | t1/2 [1] | MFI [2] | MFI [3] | MFI [4] | MFI [5] | MFI [6] | MFI [7] | MFI [8] | MFI [9] | IC50, reporter + 10,000 TL1A cells [10] |
| --- | --- | --- | --- | --- | --- | --- | --- | --- | --- | --- | --- |
| H4H1818N (antibody, human IgG4 S228P, V domains shown, human IgG4(S108P) form of H2M1818N) VH: RLQLVESGGGLVKPGGSLKLSCAASGFTISDYYMSWIRQAPGKGLEWVSYIGGSGSTIYYADSVKGRFTISRDNAKNSLYLQMNSLRAEDTAVYYCAREDADSYYYYGMDVWGQGTTVTVSS VL: not shown | ≤ 0.804 pM | ≥ 8.02 days |  |  |  |  |  |  |  |  |  |
| H4H1681N (antibody, human IgG4 S228P, V domains shown) VH: EVQLLESGGGLVQPGKSLRLSCAVSGFTFSTYGMNWVRQAPGKGLEWVSSISGTGRTTYHADSVQGRFTVSRDNSKNILYLQMNSLRADDTAVYFCTKERGDYYYGVFDYWGQGTLVTVSS VL: DIQMTQSPSTLSASVGDRVTITCRASQTISSWLAWYQQTPEKAPKLLIYAASNLQSGVPSRFSGSGSGTEFTLTISSLQPDDFATYYCQQYHRSWTFGQGTKVEIT |  |  | 80.9 | 28.5 | 327 | 318 |  |  |  |  |  |
| H4H1704N (antibody, human IgG4 S228P, V domains shown, human IgG4(S108P) form of H2M1704N) VH: EVQLVESGGGLVQPGGSLRLSCAVSGFTFSSYWMSWVRQAPGKGLEWVANIKEDGSEKNYVDSVKGRFTLSSDNAKNSLYLQMNSLRAEDTAVYYCAREDYDSYYKYGMDVWGQGTAVIVSS VL: not shown | ≤ 0.93 pM | ≥ 8.02 days |  |  |  |  | 26 | 132 | 31.5 | 116 |  |
| H4H1817N (antibody, human IgG4 S228P, V domains shown, human IgG4(S108P) form of H2M1817N) VH: QVQLQQWGAGLLKPSETLSLTCAVSGGSFSDYFWTWIRQPPGKGLEWIGEISHSGRTNYNPSLKSRVTISVDTSMSQFSLKMTSVTAADSAVYYCARDYPNWVFDYWGQGTLVTVSS VL: EIELTQSPGTLSLSPGEGATLSCRASQSVFNSYLAWYQQKPGQAPRLLIYGASRRATGIPDRFSGSGSGTDFTLTISRLEPGDFAVYFCQQYGNSPLTFGGGTKVEIK |  |  | 29.1 | 25.2 | 97.2 | 85.3 |  |  |  |  | 95 nM |
| H4H1805N (antibody, human IgG4 S228P, V domains shown, human IgG4(S108P) form of H2M1805N) VH: QVQLQQWGAGLLKPSETLSLTCAVYGGSFTGFYWSWIRQPPGKGLEWIGEINHRGNTNYNPSLKSRVTMSVDTSKNQFSLNMISVTAADTAMYFCASPFYDFWSGSDYWGQGTLVTVSS VL: DIMLTQTPLTSPVTLGQPASISCKSSQSLVHSDGNTYLSWLQQRPGQPPRLLFYKISNRFSGVPDRFSGSGAGTDFTLKISRVEAEDVGVYYCMQATQFPLTFGGGTKVEIK |  |  |  |  |  |  | 25.1 | 60.2 | 36.8 | 158 |  |
| H4H1745P (antibody, human IgG4 S228P, V domains shown) VH: EVQLVESGGGLVQPGGSLRLSCAASGFTFSSYAMTWVRQAPGKGLEWVSGVSGRGGSTYYADSVKGRFTISRDNSKNTLYLQMNSLRAEDTAVYYCAYWDISSFDYWGQGTLVTVSS VL: DIQLTQSPSFLSASVGDRVTITCWASQGISTYLAWYQQKPGKTPKLLIYAASTLQSGVPSRFSGSGSGTDFTLTISSLQPEDFATYYCQQFNSYPLTFGGGTKVEIK |  |  | 26.9 | 19.5 | 93.1 | 80 |  |  |  |  |  |
| H4H1804N (antibody, human IgG4 S228P, V domains shown, human IgG4(S108P) form of H2M1804N) VH: QVQLHQWGAGLLKPSETLSLTCAVSGVSFSDYHWAWIRQSPGKGLEWIGDINHRGRTNYNPSLKSRVTISLDTSGNPFSLKLTSVTAADTAVYYCARDFPNWVFDSWGQGILVTVSS VL: EIVLSQSPGTLSLSPGERATLSCRASQSVSSSFLAWYQQYPGQAPRLLIYGASRRATGIPDRFRGSGSGTDFTLTISRLEPEDFAVYYCQQYGSSPLTFGGGTKVENK |  |  |  |  |  |  | 33.7 | 51.1 | 33.5 | 127 | 3.99 nM |
| H4H1725P (antibody, human IgG4 S228P, V domains shown) VH: QVQLVQSGAEVKKPGASVKVSCKASGYTFTGYYMHWVRQAPGQGLEWMGWIKPKSGGTNYVQKFQGRVTMTRDTSINTAYMELNNLKSDDTAVYYCATGGSQDASDFWGQGTMVTVSS VL: DIQMTQSPSSVSASVGGRVTITCRASQDISIWLAWYQQKPGKAPNLLIYAASSLQSGVPSRFSGSGSGTDFTLTISSLQPEDFATYYCQQADSFPLTFGGGTKVEIK |  |  |  |  |  |  | 29.2 | 84.5 | 40.7 | 211 | 190 nM |
| H4H1742P (antibody, human IgG4 S228P, V domains shown) VH: EVQLVESGGGLVQPGGSLRLSCAASGFTFSNYVMNWVRQAPGKGLEWVSVISGSGGSTHYADSVKGRFTISRDNSKDALYLQMNSLRAEDTAVYYCAKGPLEAYYYYNGMDVWGQGTTVTVSS VL: DIQLTQSPSFLSASVGDRVTITCWASQAISSYLAWYQHKPGRAPKLLIYSTSTLQSGVPSRFSGSGSGTEFTLTISSLQPEDFATYYCQQLNSYPTFGQGTKLEIK | ≤ 4.45 pM | ≥ 8.02 days | 32.7 | 19.9 | 79.4 | 126 |  |  |  |  |  |
